Results taken from patent US20240270846A1 (published 2024).

Each binder was assayed against T1, CD3 epsilon homodimer protein (UniProt P07766 23-126) (assay: SPR Biacore T200, CD3 epsilon homodimer immobilized; vs unaltered GLS3000;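 further: antibody variants flowed as analyte over CD3 epsilon homodimer amine-coupled to a CM4 chip, at 25 °C in HBS-EP+ running buffer, fitted with Biacore T200 Evaluation Software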).
T1 construct: construct not described; homodimer as printed; also called CD3 (CD3 epsilon)
T1 sequence (P07766 23-126): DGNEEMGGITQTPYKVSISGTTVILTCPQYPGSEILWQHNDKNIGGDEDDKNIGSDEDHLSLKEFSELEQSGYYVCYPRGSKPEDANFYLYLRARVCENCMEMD

| Binder | KD ratio to GLS3000 (Affinity up) |
| --- | --- |
| GLS3000 N28K (Kabat) L chain altered form, one-arm antibody with CE115HA000 (antibody, human IgG1, kappa, L234A L235A, N297A, name in Kabat numbering, one-arm antibody) heavy: QVQLVESGGGVVQPGRSLRLSCAASGFTFSNAWMHWVRQAPGKGLEWVAQIKAKSNNYATYYAESVKGRFTISRDDSKNSLYLQMNSLKTEDTAVYYCRYVHYGAYYGVDAWGQGTTVTVSSASTKGPSVFPLAPSSKSTSGGTAALGCLVKDYFPEPVTVSWNSGALTSGVHTFPAVLQSSGLYSLSSVVTVPSSSLGTQTYICNVNHKPSNTKVDKKVEPKSCDKTHTCPPCPAPEAAGGPSVFLFPPKPKDTLMISRTPEVTCVVVDVSHEDPEVKFNWYVDGVEVHNAKTKPREEQYASTYRVVSVLTVLHQDWLNGKEYKCKVSNKALPAPIEKTISKAKGQPREPQVYTLPPSRCELTKNQVSLSCAVKGFYPSDIAVEWESNGQPENNYKTTPPVLDSDGSFFLVSKLTVDKSRWQQGNVFSCSVMHEALHNHYTQKSLSLSPDYKDDDDK EPKSSDKTHTCPPCPAPELLGGPSVFLFPPKPKDTLMISRTPEVTCVVVDVSHEDPEVKFNWYVDGVEVHNAKTKPREEQYNSTYRVVSVLTVLHQDWLNGKEYKCKVSNKALPAPIEKTISKAKGQPREPQVCTLPPSRDELTKNQVSLWCLVKGFYPSDIAVEWESNGQPENNYKTTPPVLDSDGSFFLYSKLTVDKSRWQQGNVFSCSVMHEALHNRYTQKSLSLSP light: DIVMTQSPLSLPVTPGEPASISCRSSQSLVHSKRNTYLHWYQQKPGQAPRLLIYKVSNRFSGVPDRFSGSGSGTDFTLKISRVEAEDVGVYYCGQGTQVPYTFGQGTKLEIKRTVAAPSVFIFPPSDEQLKSGTASVVCLLNNFYPREAKVQWKVDNALQSGNSQESVTEQDSKDSTYSLSSTLTLSKADYEKHKVYACEVTHQGLSSPVTKSFNRGEC | 2.34 |
| GLS3000 N28P (Kabat) L chain altered form, one-arm antibody with CE115HA000 (antibody, human IgG1, kappa, L234A L235A, N297A, name in Kabat numbering, one-arm antibody) heavy: QVQLVESGGGVVQPGRSLRLSCAASGFTFSNAWMHWVRQAPGKGLEWVAQIKAKSNNYATYYAESVKGRFTISRDDSKNSLYLQMNSLKTEDTAVYYCRYVHYGAYYGVDAWGQGTTVTVSSASTKGPSVFPLAPSSKSTSGGTAALGCLVKDYFPEPVTVSWNSGALTSGVHTFPAVLQSSGLYSLSSVVTVPSSSLGTQTYICNVNHKPSNTKVDKKVEPKSCDKTHTCPPCPAPEAAGGPSVFLFPPKPKDTLMISRTPEVTCVVVDVSHEDPEVKFNWYVDGVEVHNAKTKPREEQYASTYRVVSVLTVLHQDWLNGKEYKCKVSNKALPAPIEKTISKAKGQPREPQVYTLPPSRCELTKNQVSLSCAVKGFYPSDIAVEWESNGQPENNYKTTPPVLDSDGSFFLVSKLTVDKSRWQQGNVFSCSVMHEALHNHYTQKSLSLSPDYKDDDDK EPKSSDKTHTCPPCPAPELLGGPSVFLFPPKPKDTLMISRTPEVTCVVVDVSHEDPEVKFNWYVDGVEVHNAKTKPREEQYNSTYRVVSVLTVLHQDWLNGKEYKCKVSNKALPAPIEKTISKAKGQPREPQVCTLPPSRDELTKNQVSLWCLVKGFYPSDIAVEWESNGQPENNYKTTPPVLDSDGSFFLYSKLTVDKSRWQQGNVFSCSVMHEALHNRYTQKSLSLSP light: DIVMTQSPLSLPVTPGEPASISCRSSQSLVHSPRNTYLHWYQQKPGQAPRLLIYKVSNRFSGVPDRFSGSGSGTDFTLKISRVEAEDVGVYYCGQGTQVPYTFGQGTKLEIKRTVAAPSVFIFPPSDEQLKSGTASVVCLLNNFYPREAKVQWKVDNALQSGNSQESVTEQDSKDSTYSLSSTLTLSKADYEKHKVYACEVTHQGLSSPVTKSFNRGEC | 4.18 |
| GLS3000 N28M (Kabat) L chain altered form, one-arm antibody with CE115HA000 (antibody, human IgG1, kappa, L234A L235A, N297A, name in Kabat numbering, one-arm antibody) heavy: QVQLVESGGGVVQPGRSLRLSCAASGFTFSNAWMHWVRQAPGKGLEWVAQIKAKSNNYATYYAESVKGRFTISRDDSKNSLYLQMNSLKTEDTAVYYCRYVHYGAYYGVDAWGQGTTVTVSSASTKGPSVFPLAPSSKSTSGGTAALGCLVKDYFPEPVTVSWNSGALTSGVHTFPAVLQSSGLYSLSSVVTVPSSSLGTQTYICNVNHKPSNTKVDKKVEPKSCDKTHTCPPCPAPEAAGGPSVFLFPPKPKDTLMISRTPEVTCVVVDVSHEDPEVKFNWYVDGVEVHNAKTKPREEQYASTYRVVSVLTVLHQDWLNGKEYKCKVSNKALPAPIEKTISKAKGQPREPQVYTLPPSRCELTKNQVSLSCAVKGFYPSDIAVEWESNGQPENNYKTTPPVLDSDGSFFLVSKLTVDKSRWQQGNVFSCSVMHEALHNHYTQKSLSLSPDYKDDDDK EPKSSDKTHTCPPCPAPELLGGPSVFLFPPKPKDTLMISRTPEVTCVVVDVSHEDPEVKFNWYVDGVEVHNAKTKPREEQYNSTYRVVSVLTVLHQDWLNGKEYKCKVSNKALPAPIEKTISKAKGQPREPQVCTLPPSRDELTKNQVSLWCLVKGFYPSDIAVEWESNGQPENNYKTTPPVLDSDGSFFLYSKLTVDKSRWQQGNVFSCSVMHEALHNRYTQKSLSLSP light: DIVMTQSPLSLPVTPGEPASISCRSSQSLVHSMRNTYLHWYQQKPGQAPRLLIYKVSNRFSGVPDRFSGSGSGTDFTLKISRVEAEDVGVYYCGQGTQVPYTFGQGTKLEIKRTVAAPSVFIFPPSDEQLKSGTASVVCLLNNFYPREAKVQWKVDNALQSGNSQESVTEQDSKDSTYSLSSTLTLSKADYEKHKVYACEVTHQGLSSPVTKSFNRGEC | 3.29 |
| GLS3000 N28L (Kabat) L chain altered form, one-arm antibody with CE115HA000 (antibody, human IgG1, kappa, L234A L235A, N297A, name in Kabat numbering, one-arm antibody) heavy: QVQLVESGGGVVQPGRSLRLSCAASGFTFSNAWMHWVRQAPGKGLEWVAQIKAKSNNYATYYAESVKGRFTISRDDSKNSLYLQMNSLKTEDTAVYYCRYVHYGAYYGVDAWGQGTTVTVSSASTKGPSVFPLAPSSKSTSGGTAALGCLVKDYFPEPVTVSWNSGALTSGVHTFPAVLQSSGLYSLSSVVTVPSSSLGTQTYICNVNHKPSNTKVDKKVEPKSCDKTHTCPPCPAPEAAGGPSVFLFPPKPKDTLMISRTPEVTCVVVDVSHEDPEVKFNWYVDGVEVHNAKTKPREEQYASTYRVVSVLTVLHQDWLNGKEYKCKVSNKALPAPIEKTISKAKGQPREPQVYTLPPSRCELTKNQVSLSCAVKGFYPSDIAVEWESNGQPENNYKTTPPVLDSDGSFFLVSKLTVDKSRWQQGNVFSCSVMHEALHNHYTQKSLSLSPDYKDDDDK EPKSSDKTHTCPPCPAPELLGGPSVFLFPPKPKDTLMISRTPEVTCVVVDVSHEDPEVKFNWYVDGVEVHNAKTKPREEQYNSTYRVVSVLTVLHQDWLNGKEYKCKVSNKALPAPIEKTISKAKGQPREPQVCTLPPSRDELTKNQVSLWCLVKGFYPSDIAVEWESNGQPENNYKTTPPVLDSDGSFFLYSKLTVDKSRWQQGNVFSCSVMHEALHNRYTQKSLSLSP light: DIVMTQSPLSLPVTPGEPASISCRSSQSLVHSLRNTYLHWYQQKPGQAPRLLIYKVSNRFSGVPDRFSGSGSGTDFTLKISRVEAEDVGVYYCGQGTQVPYTFGQGTKLEIKRTVAAPSVFIFPPSDEQLKSGTASVVCLLNNFYPREAKVQWKVDNALQSGNSQESVTEQDSKDSTYSLSSTLTLSKADYEKHKVYACEVTHQGLSSPVTKSFNRGEC | 3.34 |

More lines, now with the values ahead:

| KD ratio to GLS3000 (Affinity up) | Binder |
| --- | --- |
| 4.3 | GLS3000 N28S (Kabat) L chain altered form, one-arm antibody with CE115HA000 (antibody, human IgG1, kappa, L234A L235A, N297A, name in Kabat numbering, one-arm antibody) heavy: QVQLVESGGGVVQPGRSLRLSCAASGFTFSNAWMHWVRQAPGKGLEWVAQIKAKSNNYATYYAESVKGRFTISRDDSKNSLYLQMNSLKTEDTAVYYCRYVHYGAYYGVDAWGQGTTVTVSSASTKGPSVFPLAPSSKSTSGGTAALGCLVKDYFPEPVTVSWNSGALTSGVHTFPAVLQSSGLYSLSSVVTVPSSSLGTQTYICNVNHKPSNTKVDKKVEPKSCDKTHTCPPCPAPEAAGGPSVFLFPPKPKDTLMISRTPEVTCVVVDVSHEDPEVKFNWYVDGVEVHNAKTKPREEQYASTYRVVSVLTVLHQDWLNGKEYKCKVSNKALPAPIEKTISKAKGQPREPQVYTLPPSRCELTKNQVSLSCAVKGFYPSDIAVEWESNGQPENNYKTTPPVLDSDGSFFLVSKLTVDKSRWQQGNVFSCSVMHEALHNHYTQKSLSLSPDYKDDDDK EPKSSDKTHTCPPCPAPELLGGPSVFLFPPKPKDTLMISRTPEVTCVVVDVSHEDPEVKFNWYVDGVEVHNAKTKPREEQYNSTYRVVSVLTVLHQDWLNGKEYKCKVSNKALPAPIEKTISKAKGQPREPQVCTLPPSRDELTKNQVSLWCLVKGFYPSDIAVEWESNGQPENNYKTTPPVLDSDGSFFLYSKLTVDKSRWQQGNVFSCSVMHEALHNRYTQKSLSLSP light: DIVMTQSPLSLPVTPGEPASISCRSSQSLVHSSRNTYLHWYQQKPGQAPRLLIYKVSNRFSGVPDRFSGSGSGTDFTLKISRVEAEDVGVYYCGQGTQVPYTFGQGTKLEIKRTVAAPSVFIFPPSDEQLKSGTASVVCLLNNFYPREAKVQWKVDNALQSGNSQESVTEQDSKDSTYSLSSTLTLSKADYEKHKVYACEVTHQGLSSPVTKSFNRGEC |
| 3.48 | GLS3000 N28Q (Kabat) L chain altered form, one-arm antibody with CE115HA000 (antibody, human IgG1, kappa, L234A L235A, N297A, name in Kabat numbering, one-arm antibody) heavy: QVQLVESGGGVVQPGRSLRLSCAASGFTFSNAWMHWVRQAPGKGLEWVAQIKAKSNNYATYYAESVKGRFTISRDDSKNSLYLQMNSLKTEDTAVYYCRYVHYGAYYGVDAWGQGTTVTVSSASTKGPSVFPLAPSSKSTSGGTAALGCLVKDYFPEPVTVSWNSGALTSGVHTFPAVLQSSGLYSLSSVVTVPSSSLGTQTYICNVNHKPSNTKVDKKVEPKSCDKTHTCPPCPAPEAAGGPSVFLFPPKPKDTLMISRTPEVTCVVVDVSHEDPEVKFNWYVDGVEVHNAKTKPREEQYASTYRVVSVLTVLHQDWLNGKEYKCKVSNKALPAPIEKTISKAKGQPREPQVYTLPPSRCELTKNQVSLSCAVKGFYPSDIAVEWESNGQPENNYKTTPPVLDSDGSFFLVSKLTVDKSRWQQGNVFSCSVMHEALHNHYTQKSLSLSPDYKDDDDK EPKSSDKTHTCPPCPAPELLGGPSVFLFPPKPKDTLMISRTPEVTCVVVDVSHEDPEVKFNWYVDGVEVHNAKTKPREEQYNSTYRVVSVLTVLHQDWLNGKEYKCKVSNKALPAPIEKTISKAKGQPREPQVCTLPPSRDELTKNQVSLWCLVKGFYPSDIAVEWESNGQPENNYKTTPPVLDSDGSFFLYSKLTVDKSRWQQGNVFSCSVMHEALHNRYTQKSLSLSP light: DIVMTQSPLSLPVTPGEPASISCRSSQSLVHSQRNTYLHWYQQKPGQAPRLLIYKVSNRFSGVPDRFSGSGSGTDFTLKISRVEAEDVGVYYCGQGTQVPYTFGQGTKLEIKRTVAAPSVFIFPPSDEQLKSGTASVVCLLNNFYPREAKVQWKVDNALQSGNSQESVTEQDSKDSTYSLSSTLTLSKADYEKHKVYACEVTHQGLSSPVTKSFNRGEC |
